In this data set the target is T1, AITR6-His (Arabidopsis thaliana, UniProt Q9FGW7 1-302).
T1 sequence: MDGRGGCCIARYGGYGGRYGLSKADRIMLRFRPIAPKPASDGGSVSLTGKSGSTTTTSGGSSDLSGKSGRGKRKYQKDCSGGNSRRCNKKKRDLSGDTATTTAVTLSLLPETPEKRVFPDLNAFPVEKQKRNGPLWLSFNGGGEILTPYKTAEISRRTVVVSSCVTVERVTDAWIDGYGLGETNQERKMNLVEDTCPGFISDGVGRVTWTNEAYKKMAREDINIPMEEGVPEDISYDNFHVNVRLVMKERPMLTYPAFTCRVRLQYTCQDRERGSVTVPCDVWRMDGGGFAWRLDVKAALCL
Put plainly: EMSA.

B1: F16 (dsDNA)
DNA 1: ACTCATAAAATATGTCTTTGATTTTTTGTAGTAAT
DNA 2: ATTACTACAAAAAATCAAAGACATATTTTATGAGT
Consider B1, for which the binding result is reported as “no binding”.
